Assay [1] deals with T1, soluble B7H4.
T1 chain: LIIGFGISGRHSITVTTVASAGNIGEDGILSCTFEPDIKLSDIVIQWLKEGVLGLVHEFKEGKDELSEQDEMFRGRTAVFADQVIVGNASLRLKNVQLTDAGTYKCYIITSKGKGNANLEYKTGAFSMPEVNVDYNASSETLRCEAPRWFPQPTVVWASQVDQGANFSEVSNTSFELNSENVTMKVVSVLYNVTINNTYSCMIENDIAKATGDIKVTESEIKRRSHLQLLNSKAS
Briefly: SPR; experiment #2, 25 nM B7-H4.

The target in assay [2] is T1, soluble B7H4. Put plainly: SPR; experiment #1, 20 nM B7-H4.

B1: anti-B7-H4 antibody 801 (antibody, V domains shown)
VH: EVQLVESGGGLVQPGGSLRLSCAASGFTFNSYAMHWVRQAPGKGLEWVSAISGNGGSTRYADSVKGRFTISRDNSKNTLYLQMNSLRAEDTAVYYCARDRFRKVHGFDVWGQGTLVTVSS
VL: DIQMTQSPSSLSASVGDRVTITCQASQDISNYLNWYQQKPGKAPKLLIYDASNLETGVPSRFSGSGSGTDFTFTISSLQPEDIATYYCQQDATFPLTFGQGTKVEIK
In the case of B1, the Kd with soluble B7H4 [1] was determined as 0.383 nM; with soluble B7H4 [2], 0.175 nM.

B2: anti-B7-H4 antibody 817 (antibody, V domains shown)
VH: EVQLVESGGGLVQPGGSLRLSCAASGFTFSSYAMHWVRQAPGKGLEWVSAISGSGGSTRYADSVKGRFTISRDNSKNTLYLQMNSLRAEDTAVYYCARGRWSKWGFDVWGQGTLVTVSS
VL: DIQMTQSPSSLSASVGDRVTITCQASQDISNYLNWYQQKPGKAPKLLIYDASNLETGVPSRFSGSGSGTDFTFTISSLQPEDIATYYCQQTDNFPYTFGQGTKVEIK
Regarding B2, the Kd in the assay with soluble B7H4 [1] worked out at 0.119 nM; in the assay with soluble B7H4 [2], 0.079 nM.

For the origin of these results see patent publication US11672873 (dated 2023).
